Experimental data as given in article PMC12279963 (Nature Communications, 2025).

T1: EcPBP1b^C794A (pSI233), truncation 58-804, Cy3-labelled at C776 (E. coli, UniProt P02919 58-804, C794A, Cy3 (sulfo-Cy3-maleimide) on C776)
T1 sequence (looked up): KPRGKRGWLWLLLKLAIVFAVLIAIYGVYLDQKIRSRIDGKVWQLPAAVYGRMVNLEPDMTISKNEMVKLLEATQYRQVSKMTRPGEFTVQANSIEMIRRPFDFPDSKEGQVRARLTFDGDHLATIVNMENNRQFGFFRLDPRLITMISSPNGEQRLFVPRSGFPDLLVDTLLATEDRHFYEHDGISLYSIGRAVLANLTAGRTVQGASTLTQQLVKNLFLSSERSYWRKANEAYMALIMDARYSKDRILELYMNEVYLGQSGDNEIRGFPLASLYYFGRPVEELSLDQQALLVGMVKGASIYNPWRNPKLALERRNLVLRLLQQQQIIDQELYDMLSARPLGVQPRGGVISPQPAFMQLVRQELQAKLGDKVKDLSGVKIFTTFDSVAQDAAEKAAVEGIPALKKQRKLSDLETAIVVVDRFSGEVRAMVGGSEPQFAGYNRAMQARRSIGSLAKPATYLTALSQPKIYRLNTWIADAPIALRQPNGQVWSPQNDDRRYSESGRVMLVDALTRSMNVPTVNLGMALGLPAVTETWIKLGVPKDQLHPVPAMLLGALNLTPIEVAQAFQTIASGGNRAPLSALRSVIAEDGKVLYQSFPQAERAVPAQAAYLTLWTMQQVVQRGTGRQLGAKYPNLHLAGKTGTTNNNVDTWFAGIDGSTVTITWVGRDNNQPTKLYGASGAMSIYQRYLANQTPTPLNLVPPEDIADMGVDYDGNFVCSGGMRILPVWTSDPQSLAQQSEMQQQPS

T2: EcPBP1b^82-804 (pSI199), TM domain substituted with an N-terminal cysteine acylation site, ALFA-tagged (E. coli) (UniProt P02919)
T2 sequence (P02919 82-804, looked up): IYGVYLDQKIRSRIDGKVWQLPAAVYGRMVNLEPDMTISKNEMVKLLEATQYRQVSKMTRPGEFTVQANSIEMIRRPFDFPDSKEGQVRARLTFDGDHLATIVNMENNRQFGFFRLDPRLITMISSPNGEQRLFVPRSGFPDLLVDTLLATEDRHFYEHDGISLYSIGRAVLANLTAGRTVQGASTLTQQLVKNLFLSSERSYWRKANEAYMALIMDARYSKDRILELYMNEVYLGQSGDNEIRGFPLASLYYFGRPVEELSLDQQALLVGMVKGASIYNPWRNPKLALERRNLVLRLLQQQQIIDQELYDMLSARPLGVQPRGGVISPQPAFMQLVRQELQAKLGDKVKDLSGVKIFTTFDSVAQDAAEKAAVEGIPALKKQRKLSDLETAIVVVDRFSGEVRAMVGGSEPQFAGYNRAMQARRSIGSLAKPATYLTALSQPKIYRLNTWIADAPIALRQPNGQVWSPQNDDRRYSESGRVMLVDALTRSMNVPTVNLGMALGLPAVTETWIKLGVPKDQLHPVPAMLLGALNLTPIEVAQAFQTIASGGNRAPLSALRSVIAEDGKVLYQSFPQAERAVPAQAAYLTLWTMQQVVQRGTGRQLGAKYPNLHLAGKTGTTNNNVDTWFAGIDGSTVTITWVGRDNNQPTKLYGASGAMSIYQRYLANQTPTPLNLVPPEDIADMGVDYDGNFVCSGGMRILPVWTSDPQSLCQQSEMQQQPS


Tests used:
[1] = target: T1, EcPBP1b^C794A (pSI233), truncation …; experiment: FRET or BRET
[2] = target: T2, EcPBP1b^82-804 (pSI199), TM domain substituted with an N-terminal cysteine acylation site, ALFA-tagged (E. coli); experiment: BLI

Row | Binder | Kd [1] [nM] | Kd [2] [nM]
1 | EcLpoB^S211C (pSI204), truncation 21-213, Cy5-labelled (natural protein, E. coli, UniProt P0AB38 21-213, looked up, Cy5 (sulfo-Cy5-maleimide) on C211) VGQREPAPVEEVKPAPEQPAEPQQPVPTVPSVPTIPQQPGPIEHEDQTAPPAPHIRHYDWNGAMQPMVSKMLGADGVTAGSVLLVDSVNNRTNGSLNAAEATETLRNALANNGKFTLVSAQQLSMAKQQLGLSPQDSLGTRSKAIGIARNVGAHYVLYSSASGNVNAPTLQMQLMLVQTGEIIWSGKGAVCQQ | 900 | 
2 | LpoB^64-213 (pSI259), wild type (domain or fragment) HEDQTAPPAPHIRHYDWNGAMQPMVSKMLGADGVTAGSVLLVDSVNNRTNGSLNAAEATETLRNALANNGKFTLVSAQQLSMAKQQLGLSPQDSLGTRSKAIGIARNVGAHYVLYSSASGNVNAPTLQMQLMLVQTGEIIWSGKGAVSQQ |  | 915

Results, then the binder that gave them:

Row | Kd [1] [nM] | Kd [2] [nM] | Binder
3 |  | 9 | LpoB^64-213 A164S S180I S157V (combined) (domain or fragment) HEDQTAPPAPHIRHYDWNGAMQPMVSKMLGADGVTAGSVLLVDSVNNRTNGSLNAAEATETLRNALANNGKFTLVSAQQLSMAKQQLGLSPQDVLGTRSKSIGIARNVGAHYVLYSIASGNVNAPTLQMQLMLVQTGEIIWSGKGAVSQQ
4 |  | 24 | LpoB^64-213 S157V Y178W (domain or fragment) HEDQTAPPAPHIRHYDWNGAMQPMVSKMLGADGVTAGSVLLVDSVNNRTNGSLNAAEATETLRNALANNGKFTLVSAQQLSMAKQQLGLSPQDVLGTRSKAIGIARNVGAHYVLWSSASGNVNAPTLQMQLMLVQTGEIIWSGKGAVSQQ
